B1: R3001 (peptide)
peptide: Ac-[Nva]CYEN[Tle]Y[Trp(7-aza)]EY[Sar][Nva][NMeS]-NH2
SMILES: CCC[C@H](NC(C)=O)C(=O)N[C@@H](CS)C(=O)N[C@@H](Cc1ccc(O)cc1)C(=O)N[C@@H](CCC(=O)O)C(=O)N[C@@H](CC(N)=O)C(=O)N[C@H](C(=O)N[C@@H](Cc1ccc(O)cc1)C(=O)N[C@@H](Cc1c[nH]c2ncccc12)C(=O)N[C@@H](CCC(=O)O)C(=O)N[C@@H](Cc1ccc(O)cc1)C(=O)N(C)CC(=O)N[C@@H](CCC)C(=O)N(C)[C@@H](CO)C(N)=O)C(C)(C)C
B2: R3028 (peptide)
peptide: Ac-[Tle]Y[Trp(7-aza)]EYP[Phg][Nva]-NH2
SMILES: CCC[C@H](NC(=O)[C@@H](NC(=O)[C@@H]1CCCN1C(=O)[C@H](Cc1ccc(O)cc1)NC(=O)[C@H](CCC(=O)O)NC(=O)[C@H](Cc1c[nH]c2ncccc12)NC(=O)[C@H](Cc1ccc(O)cc1)NC(=O)[C@@H](NC(C)=O)C(C)(C)C)c1ccccc1)C(N)=O

Starred links: 1 amine or outer side, 2 acyl side, 3 side chain; linkers in the order of their positions; H or OH if unused. Positions of bridges follow the written chain, without caps; N, C: chain ends. Non-standard residues stand in square brackets, D forms with d. Primed or numbered codes have the meaning given here. No end group written: not given here. Lys‑C8 = N-ε-caprylic lysine, CCCCCCCC(=O)NCCCC[C@H](N[*:1])C(=O)[*:2]; mXylyl(3) = bridging moiety between the two residues given in brackets; mXylyl″ = bridging moiety between the two marked residues; mXylyl = bridging moiety between residues (mXylyl(i,j)); Ala(1H-tetrazol-5-yl) = N[C@@H](Cc1nnn[nH]1)C(=O)O; Trp(7-aza) = N[C@@H](Cc1c[nH]c2ncccc12)C(=O)O; NMeD = CN[C@@H](CC(=O)O)C(=O)O; dPhg = N[C@@H](C(=O)O)c1ccccc1; Chg = N[C@H](C(=O)O)C1CCCCC1; Phg = N[C@H](C(=O)O)c1ccccc1; Tle = CC(C)(C)[C@H](N)C(=O)O; Lys‑C12 = N-ε-lauryl lysine; NMeS = CN[C@@H](CO)C(=O)O; NMeA = CN[C@@H](C)C(=O)O; Pra = C#CC[C@H](N)C(=O)O; Nva = CCC[C@H](N)C(=O)O; Sar = CNCC(=O)O Some results are limits rather than exact numbers.

In the assay the target is human C5 protein (human, UniProt P01031 19-673; P01031 678-1676). As to the kind of experiment: cell-based or functional assay.
Regarding Ac-CVERACD[Tle]Y[Trp(7-aza)]EYP[Phg][Nva]-NH2 (linker 1-6 via mXylyl″) [R3155], the “Avg. IC50, human hemolysis assay (complete human sera)” value (“Avg. IC50, human hemolysis assay” for short) amounted to 1530 nM.

As for Ac-[Nva]C[Phg]T[Trp(7-aza)]AY[NMeS]HC[Nva]-NH2 (linker 2-10 via mXylyl) [R3035], the “Avg. IC50, human hemolysis assay” value was greater than 50000 nM.

As to Ac-CVERFC[NMeD][Tle]Y[Trp(7-aza)]EYP[Chg][Nva]-NH2 (linker 1-6 via mXylyl″) [R3172], the “Avg. IC50, human hemolysis assay” value amounted to 12 nM.

For CVERFCDGYWEYP ([mXylyl(1,6)]Ac-C-V-E-R-F-C-D-Tbg-Y-W-E-Y-P-NH2) [R3143], the “Avg. IC50, human hemolysis assay” value was 18.6 nM.

In the case of Ac-C[Tle]ERFCDVYWEF-NH2 (linker 1-6 via mXylyl″) [R3146], the “Avg. IC50, human hemolysis assay” value came out at 107 nM.

Take B1: the “Avg. IC50, human hemolysis assay” value is 67.2 nM.

Ac-CVARFCD[Tle]Y[Trp(7-aza)]EYP[dPhg][Nva]-NH2 (linker 1-6 via mXylyl″) [R3151]: the “Avg. IC50, human hemolysis assay” value was found to be 165 nM.

On to Ac-CVERFCDVYWEF[Pra]-NH2 (linker 1-6 via mXylyl″) [R3147], for which the “Avg. IC50, human hemolysis assay” value stood at 138 nM.

Take Ac-[Nva]C[Phg]T[Trp(7-aza)]EY[NMeS]HC-NH2 (linker 2-10 via mXylyl) [R3013]: the “Avg. IC50, human hemolysis assay” value amounted to 344 nM.

Turning to Ac-CAERFCD[Tle]Y[Trp(7-aza)]EYP[Phg]K-NH2 (linker 1-6 via mXylyl″) [R3161], the “Avg. IC50, human hemolysis assay” value is 7 nM.

As to Ac-CVERFCDVY[Trp(7-aza)]EYP-NH2 (linker 1-6 via mXylyl″) [R3142], the “Avg. IC50, human hemolysis assay” value was determined as 44.6 nM.

With Ac-[Nva]C[Phg]A[Trp(7-aza)]EY[NMeS]HC[Nva]-NH2 (linker 2-10 via mXylyl) [R3033], the “Avg. IC50, human hemolysis assay” value was found to be 131 nM.

For the molecule Ac-CAERFCD[Tle]Y[Trp(7-aza)]EYP[Phg][Lys‑C8]-NH2 (linker 1-6 via mXylyl″) [R3166], the “Avg. IC50, human hemolysis assay” value worked out at 17.5 nM.

For the molecule Ac-CVERFC[Ala(1H-tetrazol-5-yl)][Tle]Y[Trp(7-aza)]EYP[Chg][Nva]-NH2 (linker 1-6 via mXylyl(3)) [R3168], the “Avg. IC50, human hemolysis assay” value is 7.5 nM.

Consider Ac-[Nva]CYEN[Tle]Y[Trp(7-aza)]EYP[Phg][Nva]C-NH2 (linker 2-14 via mXylyl) [R3019], for which the “Avg. IC50, human hemolysis assay” value is 1320 nM.

Turning to Ac-[Nva]C[Phg]T[Trp(7-aza)]EY[NMeS]AC[Nva]-NH2 (linker 2-10 via mXylyl) [R3038], the “Avg. IC50, human hemolysis assay” value is 140 nM.

As for Ac-[Nva]CAT[Trp(7-aza)]EY[NMeS]HC[Nva]-NH2 (linker 2-10 via mXylyl) [R3032], the “Avg. IC50, human hemolysis assay” value was greater than 10000 nM.

For Ac-CVERACD[Tle]Y[Trp(7-aza)]EYP[dPhg][Nva]-NH2 (linker 1-6 via mXylyl″) [R3156], the “Avg. IC50, human hemolysis assay” value is greater than 10000 nM.

Consider Ac-CAERFCD[Tle]Y[Trp(7-aza)]EYP[Phg][Lys‑C12]-NH2 (linker 1-6 via mXylyl″) [R3164], for which the “Avg. IC50, human hemolysis assay” value is 36 nM.

In the case of Ac-CVERFCA[Tle]Y[Trp(7-aza)]EYP[Phg][Nva]-NH2 (linker 1-6 via mXylyl″) [R3157], the “Avg. IC50, human hemolysis assay” value came to 84.5 nM.

Take MCSERYCEVRWEY-NH2 (linker 2-7 via mXylyl) [R3020]: the “Avg. IC50, human hemolysis assay” value stood at 24.6 nM.

As to Ac-C[Phg]T[Trp(7-aza)]EY[NMeS]HC-NH2 (linker 1-9 via mXylyl) [R3015], the “Avg. IC50, human hemolysis assay” value was greater than 3960 nM.

With Ac-CVEAFCD[Tle]Y[Trp(7-aza)]EYP[Phg][Nva]-NH2 (linker 1-6 via mXylyl″) [R3153], the “Avg. IC50, human hemolysis assay” value came to 175 nM.

Consider Ac-CVERFCA[Tle]Y[Trp(7-aza)]EYP[dPhg][Nva]-NH2 (linker 1-6 via mXylyl″) [R3158], for which the “Avg. IC50, human hemolysis assay” value was determined as 327 nM.

With Ac-[Nva]C[Phg]T[Trp(7-aza)]EA[NMeS]HC[Nva]-NH2 (linker 2-10 via mXylyl) [R3036], the “Avg. IC50, human hemolysis assay” value is greater than 50000 nM.

On to Ac-[Nva]C[Phg]T[Trp(7-aza)]EY[NMeS]HC[Nva]P[Nva]-NH2 (cysteine pairing not given here) [R3022], for which the “Avg. IC50, human hemolysis assay” value was greater than 10200 nM.

With Ac-C[Tle]Y[Trp(7-aza)]EY[NMeS]HC-NH2 (linker 1-9 via mXylyl) [R3016], the “Avg. IC50, human hemolysis assay” value is greater than 13000 nM.

B2: the “Avg. IC50, human hemolysis assay” value was greater than 10000 nM.

Ac-CVERFCDVYWEFP-NH2 (linker 1-6 via mXylyl″) [R3141]: the “Avg. IC50, human hemolysis assay” value came to 24.5 nM.

As for Ac-[Nva]C[Phg]T[Trp(7-aza)]EY[NMeA]HC[Nva]-NH2 (linker 2-10 via mXylyl) [R3037], the “Avg. IC50, human hemolysis assay” value was found to be 276 nM.

For the molecule Ac-[Nva]C[Phg]TAEY[NMeS]HC[Nva]-NH2 (linker 2-10 via mXylyl) [R3034], the “Avg. IC50, human hemolysis assay” value is greater than 50000 nM.

Take Ac-[Nva]CYEN[Tle]Y[Trp(7-aza)]ECP[Phg][Nva]-NH2 (linker 2-10 via mXylyl) [R3018]: the “Avg. IC50, human hemolysis assay” value was greater than 5730 nM.

For the molecule Ac-CAERFCD[Tle]Y[Trp(7-aza)]EYP[dPhg]K-NH2 (linker 1-6 via mXylyl″) [R3162], the “Avg. IC50, human hemolysis assay” value turned out to be 16.5 nM.

Turning to Ac-CVARFCD[Tle]Y[Trp(7-aza)]EYP[Phg][Nva]-NH2 (linker 1-6 via mXylyl″) [R3150], the “Avg. IC50, human hemolysis assay” value turned out to be 32 nM.

For Ac-CVEAFCD[Tle]Y[Trp(7-aza)]EYP[dPhg][Nva]-NH2 (linker 1-6 via mXylyl″) [R3154], the “Avg. IC50, human hemolysis assay” value was 592 nM.

In the case of Ac-[Nva]CYEN[Tle]YCEYP[Phg][Nva]-NH2 (linker 2-8 via mXylyl) [R3017], the “Avg. IC50, human hemolysis assay” value is greater than 100000 nM.

With Ac-CAERFCD[Tle]YWEYP[dPhg][Nva]-NH2 (linker 1-6 via mXylyl″) [R3149], the “Avg. IC50, human hemolysis assay” value was 13.6 nM.

Turning to Ac-CAERFCD[Tle]YWEYP[Phg][Nva]-NH2 (linker 1-6 via mXylyl″) [R3148], the “Avg. IC50, human hemolysis assay” value is 8.5 nM.

Take Ac-AC[Phg]T[Trp(7-aza)]EY[NMeS]HC[Nva]-NH2 (linker 2-10 via mXylyl) [R3031]: the “Avg. IC50, human hemolysis assay” value is 1090 nM.

The values are drawn from patent US11535650 (RA PHARMACEUTICALS, dated 2022).
